Test results reported in article PMC3944813.

Molecular target: NadRh from M. tuberculosis (NadR homolog) (M. tuberculosis)
Test: SEC

NadRh from M. tuberculosis (NadR homolog) (natural protein)
stoichiometry N: 2
